Values of other authors, collected in PMC5672955.

Target: RNA polymerase (Escherichia coli) (UniProt P0A7Z4)

Sequence of UvrD (P03018 whole entry): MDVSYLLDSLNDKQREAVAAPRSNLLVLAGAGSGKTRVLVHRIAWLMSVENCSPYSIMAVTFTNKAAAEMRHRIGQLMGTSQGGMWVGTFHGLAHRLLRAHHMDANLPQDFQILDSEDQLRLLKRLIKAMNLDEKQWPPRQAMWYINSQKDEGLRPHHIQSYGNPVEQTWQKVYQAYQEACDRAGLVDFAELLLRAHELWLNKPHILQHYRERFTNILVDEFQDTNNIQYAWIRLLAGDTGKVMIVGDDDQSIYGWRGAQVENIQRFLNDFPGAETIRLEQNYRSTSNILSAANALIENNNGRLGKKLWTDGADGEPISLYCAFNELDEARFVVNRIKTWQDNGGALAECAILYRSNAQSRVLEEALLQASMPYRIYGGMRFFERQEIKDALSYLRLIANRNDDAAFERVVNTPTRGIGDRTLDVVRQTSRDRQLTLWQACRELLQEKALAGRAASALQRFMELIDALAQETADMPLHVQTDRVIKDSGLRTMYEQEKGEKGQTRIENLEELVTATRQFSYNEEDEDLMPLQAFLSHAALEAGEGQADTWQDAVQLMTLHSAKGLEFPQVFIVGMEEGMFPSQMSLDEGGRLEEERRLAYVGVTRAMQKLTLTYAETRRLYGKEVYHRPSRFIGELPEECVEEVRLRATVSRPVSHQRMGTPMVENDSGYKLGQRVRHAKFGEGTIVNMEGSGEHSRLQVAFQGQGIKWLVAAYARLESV

- Kd: 35 nM
Substance: UvrD (from UniProt P03018)
